Columns and labels:
PK (SSO0981) = target: T1, PK (SSO0981) (Saccharolobus solfataricus, UniProt Q97ZD7); assay: continuous LDH-coupled assay, NADH […] nm; assay type: biochemical; conditions: non-competitive, allosteric; printed Ki equals the approximate concentration for 50% inhibition; half-saturating 0.03 mM PEP, 2 mM ADP, 10 mM MgCl2, 60°C (b61 says 70°C)
T1 construct: gene pyK; full-length ORF in pET324, E. coli Rosetta (DE3) pRIL; heat precipitation, ion exchange, gel filtration; no tag mentioned
T1 sequence (Q97ZD7 1-452): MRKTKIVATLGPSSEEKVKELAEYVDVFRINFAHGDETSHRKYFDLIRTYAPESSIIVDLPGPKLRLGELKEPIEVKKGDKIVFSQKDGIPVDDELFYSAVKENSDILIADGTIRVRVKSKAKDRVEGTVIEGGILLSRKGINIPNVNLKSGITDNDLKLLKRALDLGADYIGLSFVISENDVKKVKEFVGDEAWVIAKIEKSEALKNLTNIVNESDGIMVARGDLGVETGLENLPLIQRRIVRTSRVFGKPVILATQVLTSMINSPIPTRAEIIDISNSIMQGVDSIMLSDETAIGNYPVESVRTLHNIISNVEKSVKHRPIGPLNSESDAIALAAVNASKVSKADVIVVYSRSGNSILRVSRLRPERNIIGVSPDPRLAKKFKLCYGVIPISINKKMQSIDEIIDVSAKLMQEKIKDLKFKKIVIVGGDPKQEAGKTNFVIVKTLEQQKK

PEPS (SSO0883) = target: T2, PEPS (SSO0883) (Saccharolobus solfataricus, UniProt Q97ZL2); assay: discontinuous assay, PEP detected with PK/LDH, NADH […] nm; assay type: biochemical; conditions: read-out: % residual activity at 1 mM
T2 construct: gene ppsA-1; full-length, codon-optimised synthetic gene in pET11c, E. coli Rosetta (DE3) pRIL; partially purified by heat precipitation; no tag mentioned
T2 sequence (Q97ZL2 1-799): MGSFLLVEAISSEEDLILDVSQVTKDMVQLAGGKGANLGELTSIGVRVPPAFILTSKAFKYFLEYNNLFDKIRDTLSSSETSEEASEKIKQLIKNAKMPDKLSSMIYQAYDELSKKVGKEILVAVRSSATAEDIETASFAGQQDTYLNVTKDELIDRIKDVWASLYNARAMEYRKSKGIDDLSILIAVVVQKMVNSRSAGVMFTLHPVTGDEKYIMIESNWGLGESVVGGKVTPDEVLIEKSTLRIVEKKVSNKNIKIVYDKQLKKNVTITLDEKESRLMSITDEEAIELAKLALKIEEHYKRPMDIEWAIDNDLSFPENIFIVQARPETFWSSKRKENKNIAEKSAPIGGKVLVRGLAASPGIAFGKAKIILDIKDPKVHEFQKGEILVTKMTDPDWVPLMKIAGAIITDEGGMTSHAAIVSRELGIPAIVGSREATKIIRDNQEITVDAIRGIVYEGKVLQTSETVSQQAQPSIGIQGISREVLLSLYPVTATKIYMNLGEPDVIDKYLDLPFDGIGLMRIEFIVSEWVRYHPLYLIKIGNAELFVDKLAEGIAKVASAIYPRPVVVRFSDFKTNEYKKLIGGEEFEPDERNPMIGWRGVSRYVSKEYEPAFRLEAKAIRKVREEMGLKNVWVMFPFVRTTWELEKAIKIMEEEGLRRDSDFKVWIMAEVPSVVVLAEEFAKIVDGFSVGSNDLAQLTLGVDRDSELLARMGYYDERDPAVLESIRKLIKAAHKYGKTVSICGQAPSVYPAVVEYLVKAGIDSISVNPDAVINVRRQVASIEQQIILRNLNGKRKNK

purified protein [1] = substrate: Nc1ncnc2c1ncn2[C@@H]1O[C@H](COP(=O)(O)OP(=O)(O)O)[C@@H](O)[C@H]1O; assay: purified protein; assay type: biochemical, Saccharolobus solfataricus; conditions: 70°C, pH 6.5, 0.1 M HEPES, 10 mM MgCl2, co-substrate PEP
purified protein [2] = substrate: C=C(OP(=O)(O)O)C(=O)O; assay: purified protein; assay type: biochemical, Saccharolobus solfataricus; conditions: 70°C, pH 6.5, 0.1 M HEPES, 10 mM MgCl2, co-substrate ADP
purified protein [3] = substrate: Nc1ncnc2c1ncn2[C@@H]1O[C@H](COP(=O)(O)OP(=O)(O)OP(=O)(O)O)[C@@H](O)[C@H]1O; assay: purified protein; assay type: biochemical, Saccharolobus solfataricus; conditions: 70°C, pH 7.0, 100 mM Tris/HCl, 10 mM MgCl2, co-substrate pyruvate, anabolic direction
purified protein [4] = substrate: CC(=O)C(=O)O; assay: purified protein; assay type: biochemical, Saccharolobus solfataricus; conditions: 70°C, pH 7.0, 100 mM Tris/HCl, 10 mM MgCl2, co-substrate ATP, anabolic direction

With `Nc1ncnc2c1ncn2[C@@H]1O[C@H](COP(=O)(O)OP(=O)(O)OP(=O)(O)O)[C@@H](O)[C@H]1O` [ATP] the IC50 (PK (SSO0981)) was 800 µM.

`O=C(O)CCC(=O)C(=O)O` [α-ketoglutarate] was tested, and the remaining activity at 1000 µM (PEPS (SSO0883)) was roughly 80%.

With `Nc1ncnc2c1ncn2[C@@H]1O[C@H](COP(=O)(O)O)[C@@H](O)[C@H]1O` [AMP] the remaining activity at 1000 µM (PEPS (SSO0883)) was roughly 80%.

B1: PK (SSO0981) (Saccharolobus solfataricus P2) (protein)
chain: T1 sequence (Q97ZD7 1-452)
notes: full-length ORF in pET324, E. coli Rosetta (DE3) pRIL; heat precipitation, ion exchange, gel filtration; no tag mentioned
With B1 the Km (purified protein [1]) was 70 µM, the Vmax (purified protein [1]) was 70.8 µmol/min/mg and the kcat (purified protein [1]) was 58.8 s⁻¹. It also gave a kcat/Km (purified protein [1]) of 852000 M⁻¹ s⁻¹, a Km (purified protein [2]) of 90 µM and a Vmax (purified protein [2]) of 70.4 µmol/min/mg. The kcat (purified protein [2]) was 58.4 s⁻¹ and the kcat/Km (purified protein [2]) was 628000 M⁻¹ s⁻¹.

B2: PEPS (SSO0883) (Saccharolobus solfataricus P2) (protein)
chain: T2 sequence (Q97ZL2 1-799)
notes: full-length, codon-optimised synthetic gene in pET11c, E. coli Rosetta (DE3) pRIL; partially purified by heat precipitation; no tag mentioned
With B2 the Km (purified protein [3]) was 610 µM, the Vmax (purified protein [3]) was 0.22 µmol/min/mg and the kcat (purified protein [3]) was 0.33 s⁻¹. It also gave a kcat/Km (purified protein [3]) of 530 M⁻¹ s⁻¹, a Km (purified protein [4]) of 460 µM and a Vmax (purified protein [4]) of 0.32 µmol/min/mg. The kcat (purified protein [4]) was 0.48 s⁻¹ and the kcat/Km (purified protein [4]) was 1040 M⁻¹ s⁻¹.
